By kon is commonly meant the second-order rate constant of association.

We go through three molecules from publication PMC6085627, “Exploring the biological functional mechanism of the HMGB1/TLR4/MD-2 complex by surface plasmon resonance” (Molecular Medicine, 2018).

Numbering of substitutions follows the chain as printed.

One experiment addresses T1, Human TLR4/MD-2 complex (human, UniProt O00206 24-631; Q9Y6Y9 19-160).
T1 construct: Toll-like receptor 4 (TLR4), human, chain of the bought TLR4/MD-2 complex; Myeloid Differentiation factor 2 (MD-2), human, chain of the bought TLR4/MD-2 complex; No catalogue number printed; also called TLR4/MD-2 receptor; source: bought: R&D Systems
Kind of experiment: SPR; Biacore T200; TLR4/MD-2 amine-coupled on CM5 (~1200 RU); HMGB1 isoforms injected at 30 μL/min for 60 s, 25 °C, dissociation 1 min; HBS-EP pH 7.4 (10 mM hepes, 150 mM NaCl, 3 mM EDTA, 0.05% P20); 1:1 binding supposed; apparent KD. The note with it: both partners purified.

In a further experiment the target is T2, human TLR4 (human, UniProt O00206 24-631).
T2 construct: Toll-like receptor 4 (TLR4), recombinant human (rhTLR4); No catalogue number printed; also called rhTLR4; Toll-like receptor 4; source: bought: R&D Systems
Kind of experiment: SPR; Biacore T200; rhTLR4 amine-coupled on CM5 (~800 RU); HMGB1 isoforms injected at 30 μL/min for 60 s, 25 °C, dissociation 1-2 min; HBS-EP pH 7.4; 1:1 binding supposed; apparent KD. Conditions: both partners purified.

T1 sequence (O00206 24-631, chain 1 of 2): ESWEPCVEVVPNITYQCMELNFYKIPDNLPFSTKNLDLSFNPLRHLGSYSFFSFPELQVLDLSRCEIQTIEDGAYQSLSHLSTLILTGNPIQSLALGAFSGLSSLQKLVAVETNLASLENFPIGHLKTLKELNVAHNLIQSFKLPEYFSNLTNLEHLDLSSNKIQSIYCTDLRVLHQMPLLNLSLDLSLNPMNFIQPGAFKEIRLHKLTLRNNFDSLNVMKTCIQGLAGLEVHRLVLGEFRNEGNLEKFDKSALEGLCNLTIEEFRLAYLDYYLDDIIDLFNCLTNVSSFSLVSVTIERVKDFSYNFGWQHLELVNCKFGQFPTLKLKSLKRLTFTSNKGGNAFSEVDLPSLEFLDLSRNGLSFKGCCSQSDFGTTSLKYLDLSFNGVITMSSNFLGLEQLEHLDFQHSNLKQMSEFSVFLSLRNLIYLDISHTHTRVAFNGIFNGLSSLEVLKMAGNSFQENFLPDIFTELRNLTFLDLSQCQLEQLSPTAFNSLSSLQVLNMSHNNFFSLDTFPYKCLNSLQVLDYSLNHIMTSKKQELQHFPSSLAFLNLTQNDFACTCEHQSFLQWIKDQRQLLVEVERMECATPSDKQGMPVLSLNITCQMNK
T1 sequence (Q9Y6Y9 19-160, chain 2 of 2): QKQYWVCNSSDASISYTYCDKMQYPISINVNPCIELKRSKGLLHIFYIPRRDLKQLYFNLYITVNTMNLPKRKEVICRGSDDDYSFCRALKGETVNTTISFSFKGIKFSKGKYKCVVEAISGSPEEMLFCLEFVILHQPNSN
T2 sequence (O00206 24-631): as the sequence (O00206 24-631, chain 1 of 2) above

B1: disulfide HMGB1 (High Mobility Group Box 1) (natural protein, UniProt P63159 1-215, looked up)
chain: MGKGDPKKPRGKMSSYAFFVQTCREEHKKKHPDASVNFSEFSKKCSERWKTMSAKEKGKFEDMAKADKARYEREMKTYIPPKGETKKKFKDPNAPKRPPSAFFLFCSEYRPKIKGEHPGLSIGDVAKKLGEMWNNTAADDKQPYEKKAAKLKEKYEKDIAAYRAKGKPDAAKKGVVKAEKSKKKKEEEDDEEDEEDEEEEEEEEDEDEEEDDDDE
modifications: disulfide bond between C23 and C45
notes: High Mobility Group Box 1 (HMGB1), single 215-amino acid polypeptide; neither is stated here; also called disulfide HMGB1 isoform; intact HMGB1; source: E. coli, purified to homogeneity
On to B1, for which, in the experiment with Human TLR4/MD-2 complex, the Kd stood at 0.42 ± 0.01 µM, the “fold faster association rate than the other isoforms” value stood at 10 fold and the kon came out at 286000 M⁻¹ s⁻¹.

B2: DTT reduced HMGB1 (natural protein, UniProt P63159 1-215, looked up)
chain: B1 chain
modifications: cysteines reduced with DTT (no C23-C45 disulfide)
notes: High Mobility Group Box 1 (HMGB1), 215 amino acids, reduced form; Prepared as in Yang et al. 2012 (cited); Same protein as m1 in another redox state; source: E. coli, purified to homogeneity, then reduced with DTT
Turning to B2, in the experiment with Human TLR4/MD-2 complex, the Kd is 3.93 ± 0.01 µM.

B3: non-oxidizable HMGB1 3S mutant (natural protein, UniProt P63159 1-215, looked up)
chain: B1 chain with C23S, C45S, C106S
notes: HMGB1 in which all three cysteines (C23, C45, C106) are replaced by serines; Commercial protein; also called 3S mutant HMGB1; source: provided by HMGBiotech (Milan, Italy)
As to B3, the Kd stood at 4.2 ± 0.09 µM in the experiment with human TLR4 and 3.02 ± 0.02 µM with Human TLR4/MD-2 complex.
